Bridges are numbered along the chain shown (N, C = ends). Where no end group is shown, it is not given here.
T1: GIP receptor (UniProt P48546 22-466)
T1 sequence (looked up): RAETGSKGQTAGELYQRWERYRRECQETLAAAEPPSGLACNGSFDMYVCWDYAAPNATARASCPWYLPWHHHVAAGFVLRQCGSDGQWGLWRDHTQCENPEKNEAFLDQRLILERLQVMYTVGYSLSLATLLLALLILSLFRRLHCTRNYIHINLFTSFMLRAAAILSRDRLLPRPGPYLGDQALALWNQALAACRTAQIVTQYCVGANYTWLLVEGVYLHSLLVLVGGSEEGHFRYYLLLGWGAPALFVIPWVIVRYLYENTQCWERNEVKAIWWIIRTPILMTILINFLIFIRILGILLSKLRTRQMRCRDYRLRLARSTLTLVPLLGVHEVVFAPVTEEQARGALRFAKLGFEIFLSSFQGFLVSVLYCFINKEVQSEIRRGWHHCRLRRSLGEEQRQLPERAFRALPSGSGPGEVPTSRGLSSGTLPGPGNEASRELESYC

B1: mt-144 (peptide)
peptide: YAQGTFTSDYSIYMDEQAAKEFVNWLLAGGPSSGAPPPS-NH2
modifications: lactam 16-20; N-terminus assumed
SMILES: CC[C@H](C)[C@H](NC(=O)[C@H](CO)NC(=O)[C@H](Cc1ccc(O)cc1)NC(=O)[C@H](CC(=O)O)NC(=O)[C@H](CO)NC(=O)[C@@H](NC(=O)[C@H](Cc1ccccc1)NC(=O)[C@@H](NC(=O)CNC(=O)[C@H](CCC(N)=O)NC(=O)[C@H](C)NC(=O)[C@@H](N)Cc1ccc(O)cc1)[C@@H](C)O)[C@@H](C)O)C(=O)N[C@@H](Cc1ccc(O)cc1)C(=O)N[C@@H](CCSC)C(=O)N[C@@H](CC(=O)O)C(=O)N[C@H]1CCC(=O)NCCCC[C@@H](C(=O)N[C@@H](CCC(=O)O)C(=O)N[C@@H](Cc2ccccc2)C(=O)N[C@H](C(=O)N[C@@H](CC(N)=O)C(=O)N[C@@H](Cc2c[nH]c3ccccc23)C(=O)N[C@@H](CC(C)C)C(=O)N[C@@H](CC(C)C)C(=O)N[C@@H](C)C(=O)NCC(=O)NCC(=O)N2CCC[C@H]2C(=O)N[C@@H](CO)C(=O)N[C@@H](CO)C(=O)NCC(=O)N[C@@H](C)C(=O)N2CCC[C@H]2C(=O)N2CCC[C@H]2C(=O)N2CCC[C@H]2C(=O)N[C@@H](CO)C(N)=O)C(C)C)NC(=O)[C@H](C)NC(=O)[C@H](C)NC(=O)[C@H](CCC(N)=O)NC1=O
B2: mt-129 (peptide)
peptide: YSQGTFTSDYSKYLDEIHQKDFIAWLMNGGPSSGAPPPS-NH2
modifications: lactam 16-20; N-terminus assumed
SMILES: CC[C@H](C)[C@H](NC(=O)[C@H](Cc1ccccc1)NC(=O)[C@H](CC(=O)O)NC(=O)[C@@H]1CCCCNC(=O)CC[C@H](NC(=O)[C@H](CC(=O)O)NC(=O)[C@H](CC(C)C)NC(=O)[C@H](Cc2ccc(O)cc2)NC(=O)[C@H](CCCCN)NC(=O)[C@H](CO)NC(=O)[C@H](Cc2ccc(O)cc2)NC(=O)[C@H](CC(=O)O)NC(=O)[C@H](CO)NC(=O)[C@@H](NC(=O)[C@H](Cc2ccccc2)NC(=O)[C@@H](NC(=O)CNC(=O)[C@H](CCC(N)=O)NC(=O)[C@H](CO)NC(=O)[C@@H](N)Cc2ccc(O)cc2)[C@@H](C)O)[C@@H](C)O)C(=O)N[C@@H]([C@@H](C)CC)C(=O)N[C@@H](Cc2c[nH]cn2)C(=O)N[C@@H](CCC(N)=O)C(=O)N1)C(=O)N[C@@H](C)C(=O)N[C@@H](Cc1c[nH]c2ccccc12)C(=O)N[C@@H](CC(C)C)C(=O)N[C@@H](CCSC)C(=O)N[C@@H](CC(N)=O)C(=O)NCC(=O)NCC(=O)N1CCC[C@H]1C(=O)N[C@@H](CO)C(=O)N[C@@H](CO)C(=O)NCC(=O)N[C@@H](C)C(=O)N1CCC[C@H]1C(=O)N1CCC[C@H]1C(=O)N1CCC[C@H]1C(=O)N[C@@H](CO)C(N)=O
B3: mt-143 (peptide)
peptide: YSQGTFTSDYSKYLDERRAKEFVNWLLAGGPSSGAPPPS-NH2
modifications: lactam 16-20; N-terminus assumed
SMILES: CC(C)C[C@H](NC(=O)[C@H](CC(C)C)NC(=O)[C@H](Cc1c[nH]c2ccccc12)NC(=O)[C@H](CC(N)=O)NC(=O)[C@@H](NC(=O)[C@H](Cc1ccccc1)NC(=O)[C@H](CCC(=O)O)NC(=O)[C@@H]1CCCCNC(=O)CC[C@H](NC(=O)[C@H](CC(=O)O)NC(=O)[C@H](CC(C)C)NC(=O)[C@H](Cc2ccc(O)cc2)NC(=O)[C@H](CCCCN)NC(=O)[C@H](CO)NC(=O)[C@H](Cc2ccc(O)cc2)NC(=O)[C@H](CC(=O)O)NC(=O)[C@H](CO)NC(=O)[C@@H](NC(=O)[C@H](Cc2ccccc2)NC(=O)[C@@H](NC(=O)CNC(=O)[C@H](CCC(N)=O)NC(=O)[C@H](CO)NC(=O)[C@@H](N)Cc2ccc(O)cc2)[C@@H](C)O)[C@@H](C)O)C(=O)N[C@@H](CCCNC(=N)N)C(=O)N[C@@H](CCCNC(=N)N)C(=O)N[C@@H](C)C(=O)N1)C(C)C)C(=O)N[C@@H](C)C(=O)NCC(=O)NCC(=O)N1CCC[C@H]1C(=O)N[C@@H](CO)C(=O)N[C@@H](CO)C(=O)NCC(=O)N[C@@H](C)C(=O)N1CCC[C@H]1C(=O)N1CCC[C@H]1C(=O)N1CCC[C@H]1C(=O)N[C@@H](CO)C(N)=O
B4: mt-140 (peptide)
peptide: YSQGTFTSDYSIYLDEQAAKEFVNWLLAGGPSSGAPPPS-NH2
modifications: lactam 16-20; N-terminus assumed
SMILES: CC[C@H](C)[C@H](NC(=O)[C@H](CO)NC(=O)[C@H](Cc1ccc(O)cc1)NC(=O)[C@H](CC(=O)O)NC(=O)[C@H](CO)NC(=O)[C@@H](NC(=O)[C@H](Cc1ccccc1)NC(=O)[C@@H](NC(=O)CNC(=O)[C@H](CCC(N)=O)NC(=O)[C@H](CO)NC(=O)[C@@H](N)Cc1ccc(O)cc1)[C@@H](C)O)[C@@H](C)O)C(=O)N[C@@H](Cc1ccc(O)cc1)C(=O)N[C@@H](CC(C)C)C(=O)N[C@@H](CC(=O)O)C(=O)N[C@H]1CCC(=O)NCCCC[C@@H](C(=O)N[C@@H](CCC(=O)O)C(=O)N[C@@H](Cc2ccccc2)C(=O)N[C@H](C(=O)N[C@@H](CC(N)=O)C(=O)N[C@@H](Cc2c[nH]c3ccccc23)C(=O)N[C@@H](CC(C)C)C(=O)N[C@@H](CC(C)C)C(=O)N[C@@H](C)C(=O)NCC(=O)NCC(=O)N2CCC[C@H]2C(=O)N[C@@H](CO)C(=O)N[C@@H](CO)C(=O)NCC(=O)N[C@@H](C)C(=O)N2CCC[C@H]2C(=O)N2CCC[C@H]2C(=O)N2CCC[C@H]2C(=O)N[C@@H](CO)C(N)=O)C(C)C)NC(=O)[C@H](C)NC(=O)[C@H](C)NC(=O)[C@H](CCC(N)=O)NC1=O
B5: mt-141 (peptide)
peptide: YSQGTFTSDYSKYMDEQAAKEFVNWLLAGGPSSGAPPPS-NH2
modifications: lactam 16-20; N-terminus assumed
SMILES: CSCC[C@H](NC(=O)[C@H](Cc1ccc(O)cc1)NC(=O)[C@H](CCCCN)NC(=O)[C@H](CO)NC(=O)[C@H](Cc1ccc(O)cc1)NC(=O)[C@H](CC(=O)O)NC(=O)[C@H](CO)NC(=O)[C@@H](NC(=O)[C@H](Cc1ccccc1)NC(=O)[C@@H](NC(=O)CNC(=O)[C@H](CCC(N)=O)NC(=O)[C@H](CO)NC(=O)[C@@H](N)Cc1ccc(O)cc1)[C@@H](C)O)[C@@H](C)O)C(=O)N[C@@H](CC(=O)O)C(=O)N[C@H]1CCC(=O)NCCCC[C@@H](C(=O)N[C@@H](CCC(=O)O)C(=O)N[C@@H](Cc2ccccc2)C(=O)N[C@H](C(=O)N[C@@H](CC(N)=O)C(=O)N[C@@H](Cc2c[nH]c3ccccc23)C(=O)N[C@@H](CC(C)C)C(=O)N[C@@H](CC(C)C)C(=O)N[C@@H](C)C(=O)NCC(=O)NCC(=O)N2CCC[C@H]2C(=O)N[C@@H](CO)C(=O)N[C@@H](CO)C(=O)NCC(=O)N[C@@H](C)C(=O)N2CCC[C@H]2C(=O)N2CCC[C@H]2C(=O)N2CCC[C@H]2C(=O)N[C@@H](CO)C(N)=O)C(C)C)NC(=O)[C@H](C)NC(=O)[C@H](C)NC(=O)[C@H](CCC(N)=O)NC1=O

The binders below were run against glucagon receptor (UniProt P47871 26-477, limits assumed) (assay: cell-based or functional assay).
Sequence of glucagon receptor (P47871 26-477 limits assumed): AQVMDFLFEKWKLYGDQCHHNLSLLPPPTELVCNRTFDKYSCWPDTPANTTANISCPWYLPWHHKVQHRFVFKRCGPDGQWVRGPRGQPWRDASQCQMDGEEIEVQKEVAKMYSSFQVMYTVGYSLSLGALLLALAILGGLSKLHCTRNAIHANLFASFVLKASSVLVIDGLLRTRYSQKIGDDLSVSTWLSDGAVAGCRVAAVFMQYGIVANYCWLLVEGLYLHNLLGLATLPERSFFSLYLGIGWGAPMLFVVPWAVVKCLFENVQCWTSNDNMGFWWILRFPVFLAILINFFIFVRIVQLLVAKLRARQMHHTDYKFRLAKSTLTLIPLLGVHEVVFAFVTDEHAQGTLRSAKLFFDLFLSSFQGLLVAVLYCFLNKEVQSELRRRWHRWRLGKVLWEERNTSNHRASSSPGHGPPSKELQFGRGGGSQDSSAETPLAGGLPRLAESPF

Row | EC50 | relative activity | Binder
1 | 2.27 nM | 16.8% | B1
2 | 0.952 nM | 17.3% | B2
3 | 0.086 nM | 497% | B3
4 | 0.149 nM | 131% | B4
5 | 0.15 nM | 269% | B5

These binders were tested against GLP-1 receptor (UniProt P43220 24-463, limits assumed) (assay: cell-based or functional assay).

Row | EC50 | relative activity | Binder
6 | 0.036 nM | 142% | B1
7 | 4.07 nM | 1.12% | B2
8 | 1.48 nM | 4.53% | B3
9 | 0.068 nM | 49.6% | B4
10 | 0.16 nM | 36.8% | B5

Each binder was assayed against T1, GIP receptor (assay: cell-based or functional assay).

Row | EC50 | relative activity | Binder
11 | 0.48 nM | 18.5% | B1
12 | 2.88 nM | 2.06% | B2
13 | 2.63 nM | 1.82% | B3
14 | 0.366 nM | 12.8% | B4
15 | 0.747 nM | 10% | B5
